# Measurements as given in publication PMC5021340, “The Involvement of Mig1 from Xanthophyllomyces dendrorhous in Catabolic Repression: An Active Mechanism Contributing to the Regulation of Carotenoid Production”.
# B1: grg2 box A (-348) 54 bp (dsDNA)
# DNA 1: GAGGTATATGCGTTCCGCGAACTGCGGAGATGTGACGTCACATCTCGTCACAGC
# DNA 2: GCTGTGACGAGATGTGACGTCACATCTCCGCAGTTCGCGGAACGCATATACCTC
# Biological target: Mig1 (Xanthophyllomyces dendrorhous, UniProt A0A1C9UL02 1-863)
# Test: EMSA; poly(dI-dC); 20 mM HEPES pH 7.9, 50 mM KCl, 1 mM DTT, 0.1 mM EDTA, 5% glycerol (+2.5%), 200 ug/ml BSA, 50 ng/ul poly(dI-dC), 0.05% NP-40, 20 fmol DNA, 10 ug Mig1 in 20 ul, room temperature 20 min
# Details: protein: recombinant; (pET-TEV), removed by TEV protease; label: 5' biotin; blunt
# Chain of Mig1 (A0A1C9UL02 entry or part of it): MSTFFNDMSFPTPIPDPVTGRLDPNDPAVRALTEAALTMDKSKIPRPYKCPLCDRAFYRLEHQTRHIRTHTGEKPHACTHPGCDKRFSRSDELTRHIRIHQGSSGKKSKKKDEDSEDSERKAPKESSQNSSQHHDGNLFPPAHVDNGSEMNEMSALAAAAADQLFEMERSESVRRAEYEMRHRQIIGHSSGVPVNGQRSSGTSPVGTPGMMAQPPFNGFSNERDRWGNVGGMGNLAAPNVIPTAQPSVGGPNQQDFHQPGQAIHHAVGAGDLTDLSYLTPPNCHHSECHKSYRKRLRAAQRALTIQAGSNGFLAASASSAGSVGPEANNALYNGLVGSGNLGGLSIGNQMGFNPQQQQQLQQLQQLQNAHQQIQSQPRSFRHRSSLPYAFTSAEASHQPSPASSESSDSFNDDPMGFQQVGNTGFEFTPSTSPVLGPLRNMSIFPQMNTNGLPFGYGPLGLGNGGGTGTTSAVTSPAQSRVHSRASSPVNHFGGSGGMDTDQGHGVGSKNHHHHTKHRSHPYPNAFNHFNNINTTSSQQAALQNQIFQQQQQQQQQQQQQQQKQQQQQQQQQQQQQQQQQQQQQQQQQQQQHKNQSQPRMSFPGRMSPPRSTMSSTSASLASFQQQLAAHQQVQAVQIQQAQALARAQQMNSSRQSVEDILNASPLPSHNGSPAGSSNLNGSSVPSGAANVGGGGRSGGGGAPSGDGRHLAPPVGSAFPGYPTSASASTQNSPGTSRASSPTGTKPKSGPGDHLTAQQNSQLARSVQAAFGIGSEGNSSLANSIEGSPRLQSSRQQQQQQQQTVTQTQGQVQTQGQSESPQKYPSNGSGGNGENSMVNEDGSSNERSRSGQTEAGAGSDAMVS
binder,measurement,value
B1,binding result,binds
